The values that follow come from US20210179666A1 (REGENTS OF THE UNIVERSITY OF MINNESOTA, published 2021).

The target in experiment [1] is T1, human melanocortin 4 receptor (human, UniProt P32245 1-332). Description: cell-based or functional assay.
The target in experiment [2] is T2, mouse melanocortin 1 receptor (mouse, UniProt Q01727 1-315). Description: cell-based or functional assay.
In experiment [3] the target is T3, mouse melanocortin 3 receptor (mouse, UniProt P33033 1-323). Description: cell-based or functional assay.
For experiment [4], the target named is T4, mouse melanocortin 4 receptor (mouse, UniProt P56450 1-332). Description: cell-based or functional assay.
Experiment [5] concerns the target T5, mouse melanocortin 5 receptor (mouse, UniProt P41149 1-325). The experiment is described as follows: cell-based or functional assay.
In experiment [6] the target is T2, mouse melanocortin 1 receptor. The experiment is described as follows: 125I-NDP-MSH competition, HEK293 cells.
In experiment [7] the target is T3, mouse melanocortin 3 receptor. The experiment is described as follows: 125I-NDP-MSH competition, HEK293 cells.
For experiment [8], the target named is T4, mouse melanocortin 4 receptor. Description: 125I-NDP-MSH competition, HEK293 cells.
The target of experiment [9] is T5, mouse melanocortin 5 receptor. The experiment is described as follows: 125I-NDP-MSH competition, HEK293 cells.
The target of experiment [10] is T1, human melanocortin 4 receptor. The experiment is described as follows: 125I-NDP-MSH competition, HEK293 cells.
Experiment [11] addresses T2, mouse melanocortin 1 receptor. Description: 125I-NDP-MSH competition; fold vs SEQ ID NO: 1 control.
Experiment [12] has as its target T3, mouse melanocortin 3 receptor. The description is as above.
Experiment [13] addresses T4, mouse melanocortin 4 receptor. The experiment is described as above.
Experiment [14] has as its target T5, mouse melanocortin 5 receptor. Described as above.
The target in experiment [15] is T1, human melanocortin 4 receptor. Described as above.
Experiment [16] addresses T3, mouse melanocortin 3 receptor. Description: cell-based or functional assay. This is another data set of the same source.
The target in experiment [17] is T4, mouse melanocortin 4 receptor. Description: cell-based or functional assay. The source holds these as a separate data set.
The target of experiment [18] is T5, mouse melanocortin 5 receptor. The experiment is described as follows: cell-based or functional assay. The source holds these as a separate data set.
Experiment [19] has as its target T2, mouse melanocortin 1 receptor. The experiment is described as follows: 125I-NDP-MSH competition; fold vs SEQ ID NO: 2 control.
Experiment [20] addresses T3, mouse melanocortin 3 receptor. The description is as above.
Experiment [21] deals with T4, mouse melanocortin 4 receptor. The experiment is described as above.
Experiment [22] has as its target T5, mouse melanocortin 5 receptor. The experiment is described as above.
The target of experiment [23] is T1, human melanocortin 4 receptor. The description is as above.

Read-outs that look alike come from different tables or passages of the source. Square brackets hold non-standard residues; d marks the D form. Dap = NC[C@H](N)C(=O)O Some results are limits rather than exact numbers.

T3 sequence (P33033 whole entry): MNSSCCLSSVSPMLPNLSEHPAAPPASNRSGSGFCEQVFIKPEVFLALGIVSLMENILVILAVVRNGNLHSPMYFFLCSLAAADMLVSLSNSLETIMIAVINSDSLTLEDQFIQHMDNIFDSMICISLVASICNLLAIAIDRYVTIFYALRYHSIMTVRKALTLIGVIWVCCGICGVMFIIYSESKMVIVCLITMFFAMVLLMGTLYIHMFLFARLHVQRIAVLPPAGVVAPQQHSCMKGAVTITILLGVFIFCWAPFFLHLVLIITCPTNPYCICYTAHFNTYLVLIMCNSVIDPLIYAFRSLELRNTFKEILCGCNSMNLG
T1 sequence (P32245 whole entry): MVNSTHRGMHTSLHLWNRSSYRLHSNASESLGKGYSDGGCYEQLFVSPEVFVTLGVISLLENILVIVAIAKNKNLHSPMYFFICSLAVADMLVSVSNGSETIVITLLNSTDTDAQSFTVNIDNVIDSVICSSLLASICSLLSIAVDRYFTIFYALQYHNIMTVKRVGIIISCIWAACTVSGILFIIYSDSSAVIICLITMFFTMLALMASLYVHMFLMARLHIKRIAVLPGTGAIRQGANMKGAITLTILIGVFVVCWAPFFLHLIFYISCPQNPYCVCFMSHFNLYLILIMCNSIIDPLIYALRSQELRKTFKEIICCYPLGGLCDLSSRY
T2 sequence (Q01727 whole entry): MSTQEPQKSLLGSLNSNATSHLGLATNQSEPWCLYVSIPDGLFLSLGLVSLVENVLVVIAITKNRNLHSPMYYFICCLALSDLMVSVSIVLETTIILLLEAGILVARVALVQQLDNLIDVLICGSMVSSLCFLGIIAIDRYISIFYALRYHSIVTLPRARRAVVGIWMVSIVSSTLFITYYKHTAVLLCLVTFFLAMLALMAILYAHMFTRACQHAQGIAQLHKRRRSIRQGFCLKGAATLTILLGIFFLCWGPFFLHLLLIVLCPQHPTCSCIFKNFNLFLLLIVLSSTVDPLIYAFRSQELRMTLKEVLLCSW
T4 sequence (P56450 whole entry): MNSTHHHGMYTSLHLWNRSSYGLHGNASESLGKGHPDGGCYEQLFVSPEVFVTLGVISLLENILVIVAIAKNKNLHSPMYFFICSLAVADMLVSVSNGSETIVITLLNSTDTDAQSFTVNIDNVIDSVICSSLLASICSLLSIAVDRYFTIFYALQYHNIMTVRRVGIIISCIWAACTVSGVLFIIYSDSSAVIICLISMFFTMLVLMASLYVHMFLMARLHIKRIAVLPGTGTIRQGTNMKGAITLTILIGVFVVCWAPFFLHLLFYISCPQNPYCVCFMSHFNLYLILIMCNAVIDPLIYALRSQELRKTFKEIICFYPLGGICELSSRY
T5 sequence (P41149 whole entry): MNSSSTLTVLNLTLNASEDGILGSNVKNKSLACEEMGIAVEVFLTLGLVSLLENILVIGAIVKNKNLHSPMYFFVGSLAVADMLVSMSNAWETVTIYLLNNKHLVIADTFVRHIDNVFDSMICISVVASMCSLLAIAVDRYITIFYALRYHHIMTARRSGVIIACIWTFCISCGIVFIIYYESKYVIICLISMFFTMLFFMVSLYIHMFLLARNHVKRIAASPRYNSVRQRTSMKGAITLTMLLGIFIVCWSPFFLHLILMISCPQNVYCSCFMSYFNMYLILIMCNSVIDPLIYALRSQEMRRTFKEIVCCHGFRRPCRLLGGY

B1: ZMK 2-82 (peptide)
peptide: cyclo(PRFFNVF[dP])
notes: Ala115Val SNP in the Asn scaffold; also called c[Pro-Arg-Phe-Phe-Asn-Val-Phe-DPro]
The term IC50 denotes the concentration at which inhibition is half-maximal. Consider B1, for which the “pA2 (Schild analysis, agonist NDP-MSH, cAMP)” value (“pA2” below) in [1] stood at 7.8; in experiment [3], 5.9; in experiment [4], 7.2; in experiment [5], 6.1. In addition, the results for the “percent maximal stimulatory response at 100 µM (cAMP)” value (“percent maximal stimulatory response” for short) in experiment [2] and in experiment [4] were 23% and 16%, respectively. Moreover, the “EC50 (cAMP agonist)” value in experiment [3] and in [5] was greater than 100 µM throughout. The IC50 amounted to 15 µM in [6]; 53 µM in experiment [7]; 0.038 µM in experiment [8]; 29 µM in experiment [9]; 0.25 µM in experiment [10]. Moreover, the “Fold Diff” value in experiment [11] is 2 fold; in experiment [12], 3 fold; in [13] it was 2 fold; in experiment [14], 2 fold; in experiment [15], 3 fold.

B2: ZMK 3-18 (peptide)
peptide: cyclo(PCFFNAF[dP])
notes: Arg111Cys SNP in the Asn scaffold; also called c[Pro-Cys-Phe-Phe-Asn-Ala-Phe-DPro]
B2: the “pA2” value is less than 5 in experiment [16], 5.9 in experiment [17], less than 5 in experiment [18] and 5.8 in experiment [1]. For the same molecule, the IC50 in experiment [6] was determined as 24.6 µM; in experiment [8] it was 1.9 µM; in experiment [10] it was 19.3 µM. The figures for the “Fold Diff” value in experiment [11], in experiment [13] and in experiment [15] were 3 fold, 90 fold and 300 fold, respectively.

B3: ZMK 2-99 (peptide)
peptide: cyclo(PHFF[Dap]AF[dP])
notes: Arg111His SNP in the Dap scaffold; also called c[Pro-His-Phe-Phe-Dap-Ala-Phe-DPro]
Regarding B3, the “pA2” value in [1] was determined as 6.4; in experiment [3], 5.4; in experiment [4], 6. The “percent maximal stimulatory response” value in [2] came out at 56%. Moreover, the “EC50 (cAMP agonist)” value in experiment [3], in experiment [4] and in [5] was greater than 100 µM in each case. The IC50 is 25 µM in experiment [6]; 15 µM in experiment [7]; 1 µM in experiment [8]; 12 µM in experiment [9]; 2.7 µM in experiment [10]. In addition, the “Fold Diff” value turned out to be 5 fold in [19]; 5 fold in experiment [20]; 500 fold in [21]; 7 fold in experiment [22]; 400 fold in [23].

B4: ZMK 2-112 (peptide)
peptide: cyclo(PRYF[Dap]AF[dP])
notes: Phe112Tyr SNP in the Dap scaffold; also called c[Pro-Arg-Tyr-Phe-Dap-Ala-Phe-DPro]
With B4, the “pA2” value in experiment [1] is 7.5; in experiment [3], 6.5; in experiment [4] it was 7.3; in experiment [5], 6.5. For the same molecule, the “percent maximal stimulatory response” value in experiment [2] is 48%. Also, the “EC50 (cAMP agonist)” value in experiment [3], in [4] and in [5] was greater than 100 µM each time. Also, the IC50 in [6] was 18 µM; in experiment [7], 28 µM; in experiment [8], 0.134 µM; in experiment [9] it was 36 µM; in experiment [10] it was 1.02 µM. For the same molecule, the “Fold Diff” value in [19] is 4 fold; in experiment [20] it was 9 fold; in experiment [21] it was 70 fold; in experiment [22], 20 fold; in experiment [23], 100 fold.

B5: ZMK 3-20 (peptide)
peptide: cyclo(PCFF[Dap]AF[dP])
notes: Arg111Cys SNP in the Dap scaffold; also called c[Pro-Cys-Phe-Phe-Dap-Ala-Phe-DPro]
In the case of B5, the “pA2” value in experiment [1], in [3] and in experiment [4] was less than 5 each time. Further, the entries for the “EC50 (cAMP agonist)” value in [2] and in experiment [5] were 4 µM and greater than 100 µM, respectively. Further, the “percent maximal stimulatory response” value worked out at 29% in experiment [3] and 42% in experiment [4]. Further, the IC50 in experiment [6] was found to be 33 µM; in experiment [7], 49 µM; in experiment [8], 10 µM; in experiment [10], 15.7 µM. Moreover, the “Fold Diff” value in [19] was found to be 6 fold; in experiment [20], 15 fold; in [21] it was 5200 fold; in experiment [23], 2100 fold.
